Reference: paper PMC7077851, “Comparative analysis of the human serine hydrolase OVCA2 to the model serine hydrolase homolog FSH1 from S. cerevisiae” (PLoS ONE, 2020)

Tests used:
Assay in all cases: purified protein
Type in all cases: biochemical, Homo sapiens
purified protein [1] = substrate: COCCOCC(=O)OCOc1ccc2c(c1)Oc1cc(OCOC(=O)COCCOC)ccc1C21OC(=O)c2ccccc21; settings: PBS, 0.1 mg/mL acetylated BSA, 25 °C
purified protein [2] = substrate: CCCCCCCCCCCCCC(=O)Oc1ccc([N+](=O)[O-])cc1; settings: PBS, 0.1 mg/mL acetylated BSA, 1% acetonitrile, 25 °C
purified protein [3] = substrate: CCCCCCCCCC(=O)Oc1ccc([N+](=O)[O-])cc1; settings: PBS, 0.1 mg/mL acetylated BSA, 1% acetonitrile, 25 °C
purified protein [4] = substrate: CCCCCCCC(=O)Oc1ccc([N+](=O)[O-])cc1; settings: PBS, 0.1 mg/mL acetylated BSA, 1% acetonitrile, 25 °C
purified protein [5] = substrate: CC(=O)Oc1ccc([N+](=O)[O-])cc1; settings: PBS, 0.1 mg/mL acetylated BSA, 1% acetonitrile, 25 °C
purified protein [6] = substrate: COCC(=O)OCOc1ccc2c(c1)Oc1cc(OCOC(=O)COC)ccc1C21OC(=O)c2ccccc21; settings: PBS, 0.1 mg/mL acetylated BSA, 25 °C
purified protein [7] = substrate: CCCCCCCCCCCC(=O)Oc1ccc([N+](=O)[O-])cc1; settings: PBS, 0.1 mg/mL acetylated BSA, 1% acetonitrile, 25 °C
purified protein [8] = substrate: CCCC(=O)Oc1ccc([N+](=O)[O-])cc1; settings: PBS, 0.1 mg/mL acetylated BSA, 1% acetonitrile, 25 °C

| Protein | Km (purified protein [2]) [µM] | kcat (purified protein [2]) [s⁻¹] | kcat/Km (purified protein [2]) [M⁻¹ s⁻¹] | Km (purified protein [3]) [µM] | kcat (purified protein [3]) [s⁻¹] | kcat/Km (purified protein [3]) [M⁻¹ s⁻¹] | Km (purified protein [4]) [µM] | kcat/Km (purified protein [4]) [M⁻¹ s⁻¹] | Km (purified protein [7]) [µM] | kcat (purified protein [7]) [s⁻¹] | kcat/Km (purified protein [7]) [M⁻¹ s⁻¹] | further results |
| --- | --- | --- | --- | --- | --- | --- | --- | --- | --- | --- | --- | --- |
| OVCA2 (Homo sapiens) (protein) MAAQRPLRVLCLAGFRQSERGFREKTGALRKALRGRAELVCLSGPHPVPDPPGPEGARSDFGSCPPEEQPRGWWFSEQEADVFSALEEPAVCRGLEESLGMVAQALNRLGPFDGLLGFSQGAALAALVCALGQAGDPRFPLPRFILLVSGFCPRGIGFKESILQRPLSLPSLHVFGDTDKVIPSQESVQLASQFPGAITLTHSGGHFIPAAAPQRQAYLKFLDQFAE | 17 ± 14 | 0.076 ± 0.01 | 4500 ± 1800 | 3.84 ± 1.1 | 0.025 ± 0.001 | 6800 ± 1000 | 6.1 ± 5.7 | 3800 ± 1800 | 29 ± 19 | 0.076 ± 0.01 | 2700 ± 950 | Km (purified protein [1]): 3.7 ± 0.8 µM; kcat (purified protein [1]): 0.0012 ± 0.0001 s⁻¹; kcat/Km (purified protein [1]): 330 ± 70 M⁻¹ s⁻¹; kcat (purified protein [4]): 0.023 ± 0.005 s⁻¹; Km (purified protein [5]): 1400 ± 600 µM; kcat (purified protein [5]): 0.26 ± 0.03 s⁻¹; kcat/Km (purified protein [5]): 200 ± 50 M⁻¹ s⁻¹; Km (purified protein [6]): 12 ± 5 µM; kcat (purified protein [6]): 0.0013 ± 0.0002 s⁻¹; kcat/Km (purified protein [6]): 100 ± 40 M⁻¹ s⁻¹; Km (purified protein [8]): 2900 ± 100 µM |
| OVCA2 (Homo sapiens; D179A) (protein) MAAQRPLRVLCLAGFRQSERGFREKTGALRKALRGRAELVCLSGPHPVPDPPGPEGARSDFGSCPPEEQPRGWWFSEQEADVFSALEEPAVCRGLEESLGMVAQALNRLGPFDGLLGFSQGAALAALVCALGQAGDPRFPLPRFILLVSGFCPRGIGFKESILQRPLSLPSLHVFGDTAKVIPSQESVQLASQFPGAITLTHSGGHFIPAAAPQRQAYLKFLDQFAE | 5.7 ± 1.9 | 4.6e-05 ± 4e-06 | 7.8 ± 1.4 | 3.2 ± 1.5 | 3.7e-05 ± 4e-06 | 11 ± 3 | 2.0 ± 0.2 | 0.5 ± 0.3 | 1.1 ± 0.6 | 7.3e-05 ± 8e-06 | 69 ± 20 | – |
